Reference: patent publication US20230265175A1 (Merck Sharp & Dohme, published 2023)
Positions count from the first letter of the chain named. Names may count otherwise.

B1: HmzTa1505-hIgG4-S228P (antibody)
heavy: not shown
light: DIVMTQSPLSLPVTLGEPASISCRSSQNIVHSNANTYLEWYLQKPGQSPQLLIYTVSNRFSGVPDRFSGSGSGTDFTLKISRVEAEDLGVYYCFQGSHLPLTFGGGTKVEIKRTVAAPSVFIFPPSDEQLKSGTASVVCLLNNFYPREAKVQWKVDNALQSGNSQESVTEQDSKDSTYSLSSTLTLSKADYEKHKVYACEVTHQGLSSPVTKSFNRGEC
B2: V8-AFM-hIgG1-LALA-YTE (antibody)
heavy: EVQLVESGGGLVQPGGSLRLSCAASGFTFSSFALNWVRQAPGKGLEWVGHIRSETNNYVTFYAASVKGRFTVSRDDSQNTAYLQMNSLKTEDTATYYCVRRGPRDSWFGYWGQGTLVTVSSASTKGPSVFPLAPSSKSTSGGTAALGCLVKDYFPEPVTVSWNSGALTSGVHTFPAVLQSSGLYSLSSVVTVPSSSLGTQTYICNVNHKPSNTKVDKKVEPKSCDKTHTCPPCPAPEAAGGPSVFLFPPKPKDTLYITREPEVTCVVVDVSHEDPEVKFNWYVDGVEVHNAKTKPREEQYNSTYRVVSVLTVLHQDWLNGKEYKCKVSNKALPAPIEKTISKAKGQPREPQVYTLPPSRDELTKNQVSLTCLVKGFYPSDIAVEWESNGQPENNYKTTPPVLDSDGSFFLYSKLTVDKSRWQQGNVFSCSVMHEALHNHYTQKSLSLSPGK
light: B1 light with N28K, S32R, H98Y
notes: also called V8-AFM-IgG1-LALA-YTE

Experiments:
[1] = molecular target: T1, tau species in African Green Monkey (AGM) CSF (African Green Monkey); assay: competitive ELISA, fresh AGM CSF (75 µl of neat CSF); competitor biotinylated Ta1505-mIgG2a
T1 construct: also called Fresh African Green Monkey (AGM) CSF
Procedure: Binding affinities of various anti-tau-pS413 antibodies described herein for endogenous tau species were determined in brain homogenates and CSF samples from AD patients and preclinical models. Briefly, samples were pre-incubated with different concentrations of various anti-tau-pS413 antibodies, or respective isotype controls. Following a one-hour pre-incubation period, the antigen-antibody (Ag-Ab) mixture was added to plates pre-coated with a total tau capture antibody (Innotest ELISA kit).
Tissue homogenates were prepared using 1% sarkosyl buffer with several high-speed centrifugation steps to enrich for insoluble proteins including tau.

[2] = molecular target: recombinant phosphorylated tau protein monomer (35 AWM); assay: competitive ELISA, 35 AWM (1 ng); free tau-pS413 detected with biotinylated Ta1505-mIgG2a (competitor)

Binder	EC50 [1]	EC50 [2]
B1	2.08 nM	6.73 nM
B2	0.008 nM	0.055 nM
